Assay results: US20250388650A1 (ENOSI THERAPEUTICS, published 2025)

Columns and labels:
[1] = biological target: NRG1 (UniProt Q02297); assay: cell-based or functional assay
[2] = biological target: T1, HF310 (HER3-500) (human, UniProt P21860 20-519); assay: 125I-HRG cross-linking normalised by anti-HER3 Western blot densitometry
T1 construct: also called HER3-501; HF310T
Protocol: Binding was performed by mixing increasing amounts of supernatants (from 2.5 μl-20 μl of supernatant) with 5 nM of ¹²⁵I-HRG in a total volume of 20 μl of Hepes buffer (pH 7.5) at room temperature for 2 hours. 1 mM of the BS₃ crosslinker was added at the end of the binding assay to cross-link the bound molecules. Binding reactions were separated on an SDS-PAGE gel. The protein gel was dried and exposed to a film for 2 and 6 hours.
A parallel Western blot with an anti-HER3 antibody (R&D Systems), followed by densitometry was used to estimate relative HER3-derivative levels and then to normalize ligand binding to each protein based on equal number of binding sites, which are the equivalent to anti-HER3 binding sites.

[3] = biological target: EN2320 (HER3/Fc homodimer) (human, UniProt P21860 20-640); assay: SPR (Biacore 8K), trap on anti-human Fc chip
Sequence of EN2320 (HER3/Fc homodimer) (P21860 20-640 Y265A): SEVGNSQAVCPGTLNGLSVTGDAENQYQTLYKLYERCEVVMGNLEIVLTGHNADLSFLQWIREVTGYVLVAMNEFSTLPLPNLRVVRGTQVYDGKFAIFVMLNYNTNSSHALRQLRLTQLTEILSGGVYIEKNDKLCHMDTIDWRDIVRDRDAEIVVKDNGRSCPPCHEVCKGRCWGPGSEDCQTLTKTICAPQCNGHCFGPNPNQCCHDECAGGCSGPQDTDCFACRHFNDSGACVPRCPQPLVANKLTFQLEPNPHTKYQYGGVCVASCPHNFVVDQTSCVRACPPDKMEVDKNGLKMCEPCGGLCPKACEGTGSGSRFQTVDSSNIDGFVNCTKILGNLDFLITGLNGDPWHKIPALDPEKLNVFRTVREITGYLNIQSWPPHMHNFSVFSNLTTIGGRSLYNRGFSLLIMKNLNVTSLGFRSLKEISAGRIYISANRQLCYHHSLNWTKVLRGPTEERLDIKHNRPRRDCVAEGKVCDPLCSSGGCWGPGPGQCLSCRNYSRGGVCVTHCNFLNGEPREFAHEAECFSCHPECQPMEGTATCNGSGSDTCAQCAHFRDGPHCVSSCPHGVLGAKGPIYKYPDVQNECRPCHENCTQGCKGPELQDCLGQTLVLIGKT

T1 sequence (P21860 20-519 limits assumed): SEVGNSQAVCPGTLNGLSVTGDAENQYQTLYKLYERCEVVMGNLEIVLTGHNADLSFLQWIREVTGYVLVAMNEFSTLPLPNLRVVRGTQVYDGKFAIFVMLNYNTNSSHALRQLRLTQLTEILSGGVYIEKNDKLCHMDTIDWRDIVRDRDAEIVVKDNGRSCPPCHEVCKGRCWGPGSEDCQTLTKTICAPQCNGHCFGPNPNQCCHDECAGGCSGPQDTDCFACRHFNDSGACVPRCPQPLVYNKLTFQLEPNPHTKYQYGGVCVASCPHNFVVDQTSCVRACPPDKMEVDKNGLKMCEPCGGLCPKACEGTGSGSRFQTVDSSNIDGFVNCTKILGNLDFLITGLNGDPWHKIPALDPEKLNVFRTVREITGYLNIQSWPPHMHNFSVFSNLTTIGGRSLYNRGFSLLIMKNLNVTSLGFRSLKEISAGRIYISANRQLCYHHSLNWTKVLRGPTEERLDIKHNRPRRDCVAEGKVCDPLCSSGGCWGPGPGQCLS

Row | Approximate EC50, inhibition of NRG1-β-induced HER3 phosphorylation (MCF7 cells, phosphotyrosine ELISA) [1] [nM] | binding result [2] | Kd [3] [nM] | koff [3] [s⁻¹] | kon [3] [M⁻¹ s⁻¹] | Molecule
1 |  | binds |  |  |  | heregulin (HRG) (ligand, UniProt Q02297-6 177-241, looked up, also: 125I label, site not given here, also called HRG1β1) SHLVKCAEKEKTFCVNGGECFMVKDLSNPSRYLCKCPNEFTGDRCQNYVMASFYKHLGIEFMEAE
2 |  |  | 43.3 | 0.0247 | 571000 | NRG2-beta (ligand, UniProt O14511-3 341-405, looked up) HARKCNETAKSYCVNGGVCYYIEGINQLSCKCPNGFFGQRCLEKLPLRLYMPDPKQKHLGFELKE

Second part, the molecule before the results:

Row | Molecule | Approximate EC50, inhibition of NRG1-β-induced HER3 phosphorylation (MCF7 cells, phosphotyrosine ELISA) [1] [nM] | binding result [2] | Kd [3] [nM] | koff [3] [s⁻¹] | kon [3] [M⁻¹ s⁻¹]
3 | HER3^Y246A/Fc (from UniProt P21860 20-640) (Fc fusion) | 1.5 |  |  |  | 
4 | NRG1 (ligand, UniProt Q02297-6 177-241, looked up, also called NRG1_R&D; NRG1-R&D) SHLVKCAEKEKTFCVNGGECFMVKDLSNPSRYLCKCPNEFTGDRCQNYVMASFYKHLGIEFMEAE |  |  | 0.389 | 0.379 | 9.76e+08
